In publication PMC11088876, “Activin E is a transforming growth factor β ligand that signals specifically through activin receptor-like kinase 7” (Biochemical Journal, 2024):

Biological target: the molecule itself
Assay: SDS-PAGE under non-reducing and reducing conditions with anti-Flag western blot; conditioned medium of transfected ExpiCHO-S cells; 15% SDS gels; covalent (disulfide-linked) dimer against monomer

B1: Flag-tagged mature ActE from Construct II (ligand, human, UniProt P58166 237-350, looked up)
chain: TPTCEPATPLCCRRDHYVDFQELGWRDWILQPEGYQLNYCSGQCPPHLAGSPGIAASFHSAVFSLLKANNPWPASTSCCVPTARRPLSLLYLDHNGNVVKTDVPDMVVEACGCS
notes: A233R lies in the furin site before the cut and is surmised not to stand in the mature chain; Furin processing was incomplete: the medium also holds singly and doubly unprocessed species and a smaller clipping product; also called Flag-ActE; ActE Construct II; source: ExpiCHO-S, transfected, conditioned medium (concentrated 20x); not shown: Flag, N-terminal, kept
  stoichiometry N: 2
